The values below are quoted from earlier work in PMC6331645.

For the data set, the target named is Raf1 RBD RBD (Homo sapiens) (UniProt P04049).

For KRas (from UniProt P01116), the Kd (usually a measure of binding affinity in units of concentration) was 20 nM.
